Patent publication US20230064978A1, “CYCLIC PEPTIDE RECEPTOR LANTHIONINE SYNTHETASE C-LIKE PROTEIN (LANCL) AND USES THEREOF” (LATERAL IP PTY LTD, priority 2019, published 2023)
Entries after “also recorded” stand apart in the source; their conditions may differ. Bridges are numbered along the chain shown (N, C = ends). Where no end group is shown, it is not given here.

Key:
Assay type in all cases: binding
LANCL1 = LANCL1 (Rattus norvegicus, UniProt Q9QX69); experiment: Mass spectrometry of excised gel bands from PAL cross-linked homogenates (PALMS); set-up: from tissue; host or cells: nerve tissue homogenate of neuropathic animals
LANCL1, sequence (Q9QX69 whole entry): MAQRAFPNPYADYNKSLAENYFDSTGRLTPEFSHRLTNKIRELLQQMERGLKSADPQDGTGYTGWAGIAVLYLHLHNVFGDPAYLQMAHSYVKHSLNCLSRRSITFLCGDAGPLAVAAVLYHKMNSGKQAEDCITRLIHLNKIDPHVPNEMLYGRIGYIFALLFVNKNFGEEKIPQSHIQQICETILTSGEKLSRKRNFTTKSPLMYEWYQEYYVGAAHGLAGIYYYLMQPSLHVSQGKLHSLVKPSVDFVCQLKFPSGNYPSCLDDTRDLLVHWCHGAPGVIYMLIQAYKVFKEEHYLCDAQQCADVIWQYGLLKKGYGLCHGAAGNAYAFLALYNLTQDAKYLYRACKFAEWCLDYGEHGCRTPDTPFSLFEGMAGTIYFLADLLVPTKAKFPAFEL
Description: Having identified at least three molecular weight bands as representative of the potential targets, the 12-15 kD, 37 kD and 50 kD regions of the gel were excised, subjected to limited proteolysis and analysed by mass spectrometry to identify peptides from proteins that were differentially enriched. The detection of at least two different peptides from a protein that is enriched in the LAT9991-PAL cross-linked samples when compared to (i) the un-crosslinked samples and (ii) LAT9991-PAL in the presence of excess LAT8881 (SEQ ID NO:1; YLRIVQCRSVEGSCGF) was considered a positive signature. LAT9991-PAL, LAT9993-PAL and LAT7771-PAL were also used. LAT9993 (SEQ ID NO:41) has the amino acid sequence SCRSRPVESSC.

human recombinant LANCL3 = molecular target: T1, human recombinant LANCL3 (Homo sapiens, UniProt Q6ZV70); experiment: In-gel fluorescence: photolabelling of recombinant LANCL3 with PAL probe, with or without excess LAT8881
T1 construct: human recombinant LANCL3 (amino acid residues 1-420); 10xHis (N); Myc (C); purchased ABCAM ab163277; host or cells: E. coli
T1 sequence (Q6ZV70 whole entry, the tested form may be a part): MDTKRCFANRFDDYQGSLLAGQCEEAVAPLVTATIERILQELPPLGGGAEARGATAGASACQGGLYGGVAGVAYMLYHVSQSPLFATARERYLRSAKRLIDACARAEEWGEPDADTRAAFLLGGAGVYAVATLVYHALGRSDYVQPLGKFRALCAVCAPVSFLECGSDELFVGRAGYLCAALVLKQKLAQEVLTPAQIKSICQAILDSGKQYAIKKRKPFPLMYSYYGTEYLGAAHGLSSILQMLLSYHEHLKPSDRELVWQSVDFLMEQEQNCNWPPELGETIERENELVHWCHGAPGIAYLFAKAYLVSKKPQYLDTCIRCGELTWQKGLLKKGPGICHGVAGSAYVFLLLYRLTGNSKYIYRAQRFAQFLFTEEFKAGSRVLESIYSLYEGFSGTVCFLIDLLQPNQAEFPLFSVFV
Experimental: (§1) An in-gel fluorescence protocol was followed to determine whether the cyclic peptides bound to LANCL2 and LANCL3. Briefly:
(§2) 1. LANCL2 and LANCL3 Labelling, Assay on 96 Well Plate, Volume of the Reaction 40 μl in PBS
• […] of human recombinant LANCL3 (amino acid residues 1-420; ABCAM catalog no. ab163277, ˜0.07 mg/ml; expressed in E. Coli and incorporating an N-terminal 10×His tag and a C-terminal Mvc tag; UniProt Accession no: Q6ZV70);
• Vehicle DMSO • ±LAT8881 (a cyclic peptide fragment of human growth hormone; SEQ ID NO:1) • SEQ ID NO:1 as competitor @ 50, 100 or 200 μM, pre-incubation 10 min, […], incubation 30 min at room temperature on a plate agitator (protected from light), 4 μl of a stock solution @10 μM
(§3) • Irradiation @ 365 nm 20 min (4° C., on a support containing ice) • Transfer 40 μl in a clean Eppendorf tube
(§4) • Reduction: DTT 10 mM, 30 min @ 56° C. • Alkylation: Iodoacétamide 30 mM, 45 min @ RT Click-iT AzideTamra of 60 μL samples
(§5) • Acetone Precipitation −20° C. ON • Dry pellet resuspended in 30 μL 1% SDS in 50 mM Tris-HCl pH 7.5 • Photolabeled LANCL1 was tagged with tetramethylrhodamine (TAMRA) azide @100 μM TAMRA azide by copper click chemistry using the Click-iT Protein Reaction Buffer Kit (ThermoFisher Scientific) for 30 minutes • Precipitation using the chloroform-methanol method, pellet was air-dried for 10 min at room temperature, resuspended in 30 μL SDS loading buffer (Bio Rad XT Sample Buffer containing 2.5% v/v 2-mercaptoethanol) and heated (60° C., 30 min)
(§6) • SDS-PAGE (4-15% Criterion™ TGX Stain-Free™ Protein Gel, Bio Rad) • Analyzed by in-gel fluorescence scanning using a ChemiDoc™ MP Imaging System (Bio Rad) with a green LED light as an excitation source and a BP600/20 nm emission filter

human recombinant LANCL2 = molecular target: T2, human recombinant LANCL2 (Homo sapiens, UniProt Q9NS86); experiment: In-gel fluorescence: photolabelling of recombinant LANCL2 with PAL probe, with or without excess LAT8881
T2 construct: human recombinant LANCL2 (amino acid residues 1-450); GST (N); purchased ABCAM ab163277; host or cells: wheat germ
T2 sequence (Q9NS86 1-450): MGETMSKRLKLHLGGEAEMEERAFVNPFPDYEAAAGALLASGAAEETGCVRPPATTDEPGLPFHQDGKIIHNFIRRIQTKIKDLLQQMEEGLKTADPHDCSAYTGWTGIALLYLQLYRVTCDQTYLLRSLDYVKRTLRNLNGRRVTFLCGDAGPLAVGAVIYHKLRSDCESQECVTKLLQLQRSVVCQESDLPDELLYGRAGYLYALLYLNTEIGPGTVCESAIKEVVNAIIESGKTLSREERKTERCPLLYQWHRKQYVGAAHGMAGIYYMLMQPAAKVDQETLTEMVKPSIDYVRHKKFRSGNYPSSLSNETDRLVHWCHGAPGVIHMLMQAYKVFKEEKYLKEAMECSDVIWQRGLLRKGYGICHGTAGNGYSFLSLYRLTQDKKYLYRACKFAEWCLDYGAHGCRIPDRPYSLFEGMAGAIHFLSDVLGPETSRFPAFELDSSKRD
Experimental: as §1, §2
• 1 μg/well of human recombinant LANCL2 (amino acid residues 1-450; ABCAM catalog no. ab163277, ˜0.07 mg/ml; expressed in wheat germ and incorporating an N-terminal GST tag; UniProt Accession no: Q9NS86);
• Vehicle DMSO • ±LAT8881 (a cyclic peptide fragment of human growth hormone; SEQ ID NO:1) • SEQ ID NO:1 as competitor @ 50, 100 or 200 μM, pre-incubation 10 min, 4 μl of a stock solution 10-fold concentrated • ±LAT9991-PAL probes @ 1 μM, incubation 30 min at room temperature on a plate agitator (protected from light), 4 μl of a stock solution @10 μM
as §3, §4, §5, §6

[1] = probe LAT9991-PAL, excess LAT8881
[2] = in-gel fluorescence after UV cross-linking

Substance | Inhibition of PAL probe binding to LANCL1 from tissue homogenates by excess competitor (LANCL1; probes LAT9991-PAL, LAT9993-PAL, LAT7771-PAL, excess LAT8881) | Inhibition of LAT9991-PAL binding to LANCL3 by excess competitor (human recombinant LANCL3; [1]) | Inhibition of LAT9993-PAL binding to recombinant LANCL3 by excess competitor (human recombinant LANCL3; probe LAT9993-PAL (as in FIG. 11 legend), excess LAT8881) | Inhibition of LAT7771-PAL binding to recombinant LANCL2 by excess competitor (human recombinant LANCL2; probe LAT7771-PAL (as in FIG. 10 legend), excess LAT8881) | Inhibition of LAT9991-PAL binding to LANCL2 by excess competitor (human recombinant LANCL2; [1]) | LANCL1 bound / enriched in PAL probe cross-linked samples (mass spectrometry) (LANCL1; vs un-crosslinked samples (CU) and samples with excess LAT8881 (COMP), 37 kDa band) | Binding of PAL probe to recombinant LANCL3 (human recombinant LANCL3; [2]) | Binding of PAL probe to recombinant LANCL2 (human recombinant LANCL2; [2])
YLRIVQCRSVEGSCGF [LAT8881, a cyclic peptide fragment of human growth hormone] | inhibited | inhibited | inhibited | inhibited | inhibited | – | – | –
LAT9991-PAL: cyclic peptide of SEQ ID NO:12 (LAT9991) conjugated to the PAL (Photo-Activated Labelling) grouping (CRSVEGSCG; disulfide 1-8 (inferred); also: PAL group on N-terminal Cys-Arg part) | – | – | – | – | – | met the arbitrary statistical criteria for a “hit”; also recorded: enriched by several fold-changes; also recorded: bound to LANCL1 | binds | binds
